B1: Pseudomonas exotoxin (protein)
chain: AEEAFDLWNECAKACVLDLKDGVRSSRMSVDPAIADTNGQGVLHYSMVLEGGNDALKLAIDNALSITSDGLTIRLEGGVEPNKPVRYSYTRQARGSWSLNWLVPIGHEKPSNIKVFIHELNAGNQLSHMSPIYTIEMGDELLAKLARDATFFVRAHESNEMQPTLAISHAGVSVVMAQAQPRREKRWSEWASGKVLCLLDPLDGVYNYLAQQRCNLDDTWEGKIYRVLAGNPAKHDLDIKPTVISHRLHFPEGGSLAALTAHQACHLPLETFTRHRQPRGWEQLEQCGYPVQRLVALYLAARLSWNQVDQVIRNALASPGSGGDLGEAIREQPEQARLALTLAAAESERFVRQGTGNDEAGAASADVVSLTCPVAAGECAGPADSGDALLERNYPTGAEFLGDGGDISFSTRGTQNWTVERLLQAHRQLEERGYVFVGYHGTFLEAAQSIVFGGVRARSQDLDAIWRGFYIAGDPALAYGYAQDQEPDARGRIRNGALLRVYVPRSSLPGFYRTGLTLAAPEAAGEVERLIGHPLPLRLDAITGPEEEGGRLETILGWPLAERTVVIPSAIPTDPRNVGGDLDPSSIPDKEQAISALPDYASQPGKPPREDLK
B2: GST-RAP: GST fusion form of RAP tested in HepaRG HBV infection (protein)
chain: YSREKNQPKPSPKRESGEEFRMEKLNQLWEKAQRLHLPPVRLAELHADLKIQERDELAWKKLKLDGLDEDGEKEARLIRNLNVILAKYGLDGKKDARQVTSNSLSGTQEDGLDDPRLEKLWHKAKTSGKFSGEELDKLWREFLHHKEKVHEYNVLLETLSRTEEIHENVISPSDLSDIKGSVLHSRHTELKEKLRSINQGLDRLRRVSHQGYSTEAEFEEPRVIDLWDLAQSANLTDKELEAFREELKHFEAKIEKHNHYQKQLEIAHEKLRHAESVGDGERVSRSREKHALLEGRTKELGYTVKKHLQDLSGRISRARHNEL
modifications: left off: a dimerising Fc or GST
notes: GST fusion form of RAP tested in HepaRG HBV infection
B3: RAP: Receptor associated protein, chaperone binding LRP and other LDLR family members; universal inhibitor of the LDLR protein family (SEQ ID NO:6) (protein)
chain: MAPRRVRSFLRGLPALLLLLLFLGPWPAASHGGKYSREKNQPKPSPKRESGEEFRMEKLNQLWEKAQRLHLPPVRLAELHADLKIQERDELAWKKLKLDGLDEDGEKEARLIRNLNVILAKYGLDGKKDARQVTSNSLSGTQEDGLDDPRLEKLWHKAKTSGKFSGEELDKLWREFLHHKEKVHEYNVLLETLSRTEEIHENVISPSDLSDIKGSVLHSRHTELKEKLRSINQGLDRLRRVSHQGYSTEAEFEEPRVIDLWDLAQSANLTDKELEAFREELKHFEAKIEKHNHYQKQLEIAHEKLRHAESVGDGERVSRSREKHALLEGRTKELGYTVKKHLQDLSGRISRARHNEL
modifications: human receptor associated protein (RAP)

Assays:
[1] = system: differentiated HepaRG cells; test: Killing of differentiated HepaRG cells by LRP-utilizing toxin, trypan blue staining; type: cell-based, human; conditions: 500 ng/ml, 37° C. overnight, low dose
Procedure: Hepatocytes are polarized. LRP is distributed at the basolateral side rather than apical side of hepatocytes (Marzolo et al., Traffic 4:273-88, 2003) consistent with HBV infection from the bloodstream. It was recently reported that HBV preferentially infects hepatocytes near the edge of hepatocyte islands (Schulze et al., Hepatology 55:373-83, 2012). […] Differentiated HepaRG cells were untreated (left panel) or incubated with pseudomonas exotoxin A (500 ng/ml) at 37° C. overnight (right panel), and stained with 0.04% trypan blue to reveal dead (blue) cells under microscopy. The dead cells were mainly located at the periphery of hepatocyte islands, which are also most susceptible to HBV infection.

[2] = system: HBV; test: HBV infection of differentiated HepaRG cells with RAP or GST-RAP, secreted HBsAg by ELISA; type: cell-based; conditions: overnight with HBV inoculum and increasing concentrations, HBsAg measured 10 days later
Procedure: Differentiated HepaRG cells (4×10^4), which are susceptible to HBV infection (Gripon et al., Proc Natl Acad Sci USA 99:15655-60, 2002), were incubated overnight with HBV inoculum in the presence or absence of increasing concentrations of RAP or GST-RAP, and washed extensively to remove unbound HBV virions and HBsAg. Medium was changed every 2-3 days. HBsAg level in culture supernatant was measured 10 days later (at this point there was no more residual HBsAg from the inoculum, and signals detected reflect newly synthesized and secreted proteins). The level of HBsAg secreted into the culture supernatant was determined by an ELISA assay using a commercially available kit (e.g., Novus Biologicals, NEO BioLab, Cusabio Biotech Co., Ltd.). Briefly, culture medium was added to wells containing capture antibody (anti-HBsAg), followed by incubation at 37° C. for 30 min. After washing with provided washing buffer, conjugate (anti-HBsAg conjugated with HRP) was added followed by incubation at 37° C. for 30 min.

Molecule | cell killing (trypan blue dead cells) [1] | HBsAg secretion to culture supernatant (HBV infectivity) [2]
B1 | selectively killed cells in the periphery of hepatocyte islands | –
B2 | – | dose-dependent reduction of HBsAg secretion
B3 | – | dose-dependent reduction of HBsAg secretion

— patent publication US10442868B2, “Treating hepatitis B virus infections by administering receptor associated protein (RAP)” (Rhode Island Hospital, A Lifespan-Partner, priority 2013, dated 2019)
